The target of assay [1] is chimeric hTSH/rLH-R receptor (RMc4), displayed on CHO-RMc4luc cells (human TSH receptor with a segment of rat LH receptor). Description: cell-based or functional assay.
The target in assay [2] is human TSH receptor (wild type), displayed on CHO-Rluc cells (human) (UniProt P16473). Description: cell-based or functional assay.

With “human luteinizing hormone (from UniProt P01215 25-116; P01229 21-141) (ligand)”, in assay [1], the Ratio of Signal/Negative, luciferase reporter, LH 455 mIU/ml on CHO-Mc4luc cells came to 0.9 and the luciferase RLU, LH 455 mIU/ml on CHO-RMc4luc cells is 1560 RLU. Moreover, in assay [2], the Ratio of Signal/Negative, luciferase reporter, LH 455 mIU/ml on CHO-Rluc cells stood at 0.8 and the luciferase RLU, LH 455 mIU/ml on CHO-Rluc cells was found to be 835 RLU.

For the substance “human follicle stimulating hormone (from UniProt P01215 25-116; P01225 19-129) (ligand)”, in assay [1], the Ratio of Signal/Negative, luciferase reporter, FSH 364 mIU/ml on CHO-Mc4luc cells came out at 0.6 and the luciferase RLU, FSH 364 mIU/ml on CHO-RMc4luc cells turned out to be 1020 RLU. Further, in assay [2], the Ratio of Signal/Negative, luciferase reporter, FSH 364 mIU/ml on CHO-Rluc cells was found to be 0.7 and the luciferase RLU, FSH 364 mIU/ml on CHO-Rluc cells was determined as 728 RLU.
